{
  "source": "the DeepSol protein solubility set",
  "data": [
    {"experiment": "soluble on expression in E. coli; label from the status in PepcDB or PDB records", "values": [
      {"sequence": "MSLKRVLLLGGAGFIGYHLGRHLVERSDCRVTLVDNFFRSKQDEELDTLLQSSAVDIVEGDLTERSTFDQLDDEYDHVYALAAVVGVGYTEDMPEEVWRINTAITLNTFEWLRESSVSRVLFASTSETYAGTVEEFGAEIPTPEDVPLSITDITQPRFTYAVTKMLGEAGIAHYAQAYDFEQVTVRFHNVYGPRMGFKHVIPQVVERFHEAEDPFTVYGYDQTRAFCHVDDAVRGVVQAMETPEAAGRTYHIGDDRHEITIETLIRYIGDLMDFHGEYEQGPSHAGSVSRRCPDVDRAREVFGYEPQVHWKEGVRETVEWYADYYRSGREVFEEGHHHHHH", "soluble on expression in E. coli": "soluble"},
      {"sequence": "MSTSLVDRLWYGQGRPLALLTPLAWLYRAVSESRRRKAWHARNESLPVPVVVVGNITAGGTGKSPLTASLVQCMNQHGWKPVILSRGYGGKSSQYPLLVADGTPAGVCGDEPLMLARATGCPVVVDPDRCRGARWALENGLGDVLICDDGLQHYRLPRDIELAVFDARRGTGNGAIIPVGPLREPVERLNSVDFVVLNGAEFPEAGETIESFAGVDHPEIHAMELVPSALVNLNSGETLSPEQLKGKPVRAVAGIGNPGRFFETLRNLGAHVNEVPFPDHHHFRPEDLASGALEWLVMTAKDAVKCHGFAPDNAWVLTVQARLSEPFEQHFLERLRASSGQLQTDISEESNHGLEHHHHHH", "soluble on expression in E. coli": "not soluble"},
      {"sequence": "MAHHHHHHMAQSLVWRYLGPEDTHRCLDAPDVPSVRNLLVEIDDGMDGKLINCRNYNKGQLMIVLDMLAHLIVFTKTCSMSLEKVSTIVGIMLELHRESMSNQYTRSQSYHRLRELMLLHSVPRPPFSCGIFSVADVQHIDEYLLLSYFRHYKMYVYAFVPQRLANIHSVSVGHNHCVPPLGLPALTTATPRAEWIAKVEDTHRQMEERQMEVEDVRSAEYEEEWLKHRYLNGTHYSEGLREQLQSIKRDVSDKALNQLDLIEARLVEIEKKVEIVQQRQDGKGGKRKK", "soluble on expression in E. coli": "not soluble"},
      {"sequence": "MSLGQFSISEVGHFYIAANTSLKHIHVTCAIIERDGLVLAAQRSAVMSLPLKWEFPGGKIDPGESPEECLRRELVEEMAVHVRVGQSLPVSTHQYPTFSVTLYPFLCTIESGEIVLHEHVAVTWLPPDELHTLDWAEADLPVIKSYQQGCRMRDHEGHHHHHH", "soluble on expression in E. coli": "not soluble"},
      {"sequence": "MGHHHHHHSHDGAEPGRVDTFWYKFLKREPGGELSWEGNGPHHDRCCTYNENNLVDGVYCLPIGHWIEATGHTNEMKHTTDFYFNIAGHQAMHYSRILPNIWLGSCPRQVEHVTIKLKHELGITAVMNFQTEWDIVQNSSGCNRYPEPMTPDTMIKLYREEGLAYIWMPTPDMSTEGRVQMLPQAVCLLHALLEKGHIVYVHCNAGVGRSTAAVCGWLQYVMGWNLRKVQYFLMAKRPAVYIDEEALARAQEDFFQKFGKVRSSVCSL", "soluble on expression in E. coli": "not soluble"},
      {"sequence": "MPKIAEIEGTPNPNALKFVLKEPLTWGVAKSYDHAEQAVDDPLAAALFDIDHVTNVFYVDRWITITQDGGADWQDLAREVADPIRAAPAATDQSAAVVAAASRTLADLSEEDQQRLERINILLDEEVRPFLQHDGGDLHVLALEGNILRIHYQGACGTCPSSISGTLRGIEQLLRTIEPDIRVVSA", "soluble on expression in E. coli": "not soluble"},
      {"sequence": "MGSDKIHHHHHHMEPQWDDMKVFLAVARESSLSGAGRVLKMDPATVGRRVARFEAALKTSLFVKSPQGYALSAAGDRLLGHAEAAELAMRAGEEALTGPSDTLSGQIRIGAPDGCANYILPQVCAAISKDNPDLDIQVVALPRVINLSRREADMAVTVSAPTAGKLLVQKITDYHLHLAATRHYLRDNHPIEKLEHLRDHRMIGYIPDMIFDRELDYLNDLGIERVSLASNSVSVQIKMLAEGSALGVVHDFSLPSHRTLRKVLKEEFSLTRSFYLVRHQGDQRSDRLNRFAEALSAGIRAEVERLEGLT", "soluble on expression in E. coli": "not soluble"},
      {"sequence": "PIKMGWLKKQRSIVKNWQQRYFVLRAQQLYYYKDEEDTKPQGCMYLPGCTIKEIATNPEEAGKFVFEIIPASWDQNRMGQDSYVLMASSQAEMEEWVKFLRRVAG", "soluble on expression in E. coli": "soluble"},
      {"sequence": "MEEHPRAWIISVGNELLIGRTINTNAAWLGSRLTLLGFEVERVVTVPDRVEDIAEEVGRALGRARVVITTGGLGPTYDDVTLQGVAMALGRGLKLHPGALEMVRRFYSKRGLGLTEDRVKMAMLPDGAEPLENPVGAAPGAVVEARGSLVASLPGVPSEMEAMFEKALRPLLEEIAPPGAVVECGIAVVGVPESSLAPYIKEASRVSPRVYVKSHPQGSEIGKPLVR", "soluble on expression in E. coli": "not soluble"},
      {"sequence": "MGSDKIHHHHHHMSGKNKSVADIMAVCQEMFEDLNFNYARKWKAAKEGRKVIGFLPVYSPIEMIHAAGCLPLGIFGGGDQMEVIHGDAYYQSYICRIPRSTIELGVTNRLDFVDGMIFPFVCDVIRNLSGIWKLMFPNVWSKFFDTPQNYDKSIGGTYYIQELQELKEGLETLTGRKISDADIQRSIGLYNENRRLIREVYAFRAKQPWLAPTSEVYVLMRAGLMMDVEEHNQMLKDYMAAAAKEDRPKRDNVRISIYGSFCEQPPLNLIKSIEMAGCYVVDDDYSLNNRFLMVDVPTTGNPLEALAITYLENSVETSCKYVPDGKVKGQFHVDAVKACGAEGVIYATPSFCDPALLDRPMVCNKLSEAGIPYIAFKYAENSGQMQPIREQAGTFADSIKLWS", "soluble on expression in E. coli": "not soluble"},
      {"sequence": "MNTSSSADPKPDASLSSSNSKIKKEEDLEAMKEAIAQLLQGVEELTQDKLNDAKSRKKLEESMEELKSQNLDLKAQLDFQMAHFQSLFEAHEKEIADLKARQYQNNSIAAQTPPPDVRQELRSFPMVKHSRENPELRNVPVLIFSRCMLCETDEHTIHSCPIYNTNSKRYEGFKDKGLCRSCALPANSDGSATCGRNCMFSRRRCTNCWDKGGDKSYVYHLEFTCRWDERRSQRTSPFSTDHSDRSSKHPRISFDECENHHY", "soluble on expression in E. coli": "not soluble"},
      {"sequence": "MYGTEQIISGTIIAGPEILPIEGYICVKNGIITEIGEERTNSKNIIAPCFVNAHTHLGDSVCKDPVLGKTSGFRVQRDLDSLVKPPDGLKHRILRETPYKTLVGHIKRSLLDMIDTGTCAFADFREGGFLGVAALNKALEGLELRSLIFGRPAEPDLPLQVVLSEVRRILLRSDGLGMSGANDLDMNLLQEITACTRERKKLFAIHAGEKNRSDIEKALSLEPDLLIHLTHAGKKDLDEIAQAKIPVVVCPRSNFVTGAGMAPIAEMLEAGIRVAAGTDNVMLNSVNMFAEMEFMSKIFSIDDRQVFKICTLNGSFVMGPDSMCSIEKGNKANLMILNGDSNNLAGIQDPVGGITKRARPDDILAVLHS", "soluble on expression in E. coli": "not soluble"},
      {"sequence": "GNGIPPYAGAGDPARFTFNIVQNAKYWDKEHQYESLSDIRLHKFNAPAPGTFDFDESPVDGKKLELVSSKKIGFDGKFAGIAHDGEQFGLVTQDGSLFFTKDFDKATSFAHLDVPNGSDIHNTVDAAFFEPGGLAGIAQNKTLYGALVTKDVDDYIAWKDFLESSGDVMPLFDSKGRPELRTIRARMQYTMSVASDAKSDTFITVSVPHERAEQIVVSEFSKKDNKLVREGVLDGDYYPVGADMRGDVLYLLSKQHNCLVRVNMKDFTVKDAANLPVEGSDLAIVKDRAYILDGDTVHEVKL", "soluble on expression in E. coli": "not soluble"},
      {"sequence": "SAEDELVEIVPNMNMEQLNFISGDFGRFIPQIPTKVPLWLAVALKRRGKCTFRPPGWMSVDNLTQILEAERESQSTFQALPFSYVEIARLLFDHARDDIPDMYMVRSLVEDIRDVRLHKLETNLGSFQGTSAVKISNVSAMEVNIVRPFVIRALEAFYKHDKPEADVDRDTRSSRQQRETNNEPRRPLRQR", "soluble on expression in E. coli": "soluble"},
      {"sequence": "MSLKQKILIVEDSLTIRRMLIQAIAQQTGLEIDAFDTLEGARHCRGEEYVVALVDLTLPDAPSGEAVKVLLERGLPVVILTADISEEKRAAWLEAGVLDYVMKDSRHSLQYAVSLVHRLYLNQRIEVLVVDDSRTSRHRTMAQLRKQLLQVHEASHAREALAQLEQNPAIRLVLVDYYMPEIDGISLVRMLRERYSKQQLAIIGISVSDKRGLSARYLKQGANDFLNQPFEPEELQCRVSHNLEALEQFNSIQESANRDYLTGLYNRRYWFNEGQKWFEEHQRQETPLALCVLDVDHFKQVNDHWGHAIGDQLLCHLTRLLTQFFPDAMIARFGGEEFALMVPHCTVPVLLKRLEGLRQQMRQQPLSRETPLFVRASFGVIKVGRGSMDEALSEADRLLYQAKNTGRDKIVSQDSSEGHHHHHH", "soluble on expression in E. coli": "soluble"},
      {"sequence": "KDFCASIHRNDSLSLTHELEPFIDSMKNKTGVYVLEDGGGSLITRAWLSEYAEETIDIQYFIFSADNVGLIACDYLVRAADRGVKVRILIDDILVEAGVHEILTLDSHENIEIKIYNPGINLGKNIFNKIGKFTTDFRGANQRMHNKTFIVDHKVVITGGRNIADEYFDYDHEYNFRDRDVLLIGKTATDVQQSFESFWVDALSIPITGLVKEDDVTYTDTSRFERLHQYACNPDNFWPQVRKRISN", "soluble on expression in E. coli": "not soluble"},
      {"sequence": "MGSDKIHHHHHHDEFIQGIGNQNAQESGVWDFSMSISDMKFSQEDGAQTNPMIGMLITQIKDASLSGKIQVDAKKEKAFNLEMKLKAMGMDVPISLVGSLDNEGKEPKLYLATDMMEYIVAVADSMTDGAIDSSQLDTEKLKGKYIDLLAMNEESTKEWQDTIKEYQESEKERKQSAKEYKEFLEGLDKDTFEKKGDTITHTFTKKELQKLIKITTETSEKGKEQDPFEKVKDVSAKVSVNTKENKTNMLINVKPQQDKNVDMGLESLSSKISITQKAKKATISMPKKENILSEQEVEKIFSDSTSMTGLSTEDTTVAINQ", "soluble on expression in E. coli": "not soluble"},
      {"sequence": "MGSDKIHHHHHHMPHHQYVLTLSCPDRAGIVSAVSTFLFENGQNILDAQQYNDTESGHFFMRVVFNAAAKVIPLASLRTGFGVIAAKFTMGWHMRDRETRRKVMLLVSQSDHCLADILYRWRVGDLHMIPTAIVSNHPRETFSGFDFGDIPFYHFPVNKDTRRQQEAAITALIAQTHTDLVVLARYMQILSDEMSARLAGRCINIHHSFLPGFKGAKPYHQAFDRGVKLIGATAHYVTSALDEGPIIDQDVERISHRDTPADLVRKGRDIERRVLSRALHYHLDDRVILNGRKTVVFTD", "soluble on expression in E. coli": "not soluble"},
      {"sequence": "GKNTPKSAIIYTTMGDIHISLFYKECKKTVQNFSVHSINGYYNNCIFHRVIKHFMVQTGDPSGDGTGGESIWGNEFEDEFFDHLNHSKPFMVSMANCGPNTNGSQFFITTVPCPWLDFKHTVFGKVTQGSKIVLDIEKVRTDKRDKPLEDIKILNIKINN", "soluble on expression in E. coli": "soluble"},
      {"sequence": "MSEHQSLPAPEASTEVRVAIVGVGNCASSLVQGVEYYYNADDTSTVPGLMHVRFGPYHVRDVKFVAAFDVDAKKVGFDLSDAIFASENNTIKIADVAPTNVIVQRGPTLDGIGKYYADTIELSDAEPVDVVQALKEAKVDVLVSYLPVGSEEADKFYAQCAIDAGVAFVNALPVFIASDPVWAKKFTDARVPIVGDDIKSQVGATITHRVLAKLFEDRGVQLDRTMQLNVGGNMDFLNMLERERLESKKISKTQAVTSNLKREFKTKDVHIGPSDHVGWLDDRKWAYVRLEGRAFGDVPLNLEYKLEVWDSPNSAGVIIDAVRAAKIAKDRGIGGPVIPASAYLMKSPPEQLPDDIARAQLEEFIIG", "soluble on expression in E. coli": "soluble"},
      {"sequence": "LLIGFWDCVTCHGSPVDICTAKPRDIPMNPMCIYRSPEKKATEDEGSEQKIPEATNRRVWELSKANSRFATTFYQHLADSKNDNDNIFLSPLSISTAFAMTKLGACNDTLQQLMEVFKFDTISEKTSDQIHFFFAKLNCRLYRKANKASKLVSANRLFGDKSLTFNETYQDISELVYGAKLQPLDFKENAEQSRAAINKWVSNKTEGRITDVIPSEAINELTVLVLVNTIYFKGLWKSKFSPENTRKELFYKADGESCSASMMYQEGKFRYRRVAEGTQVLELPFKGDDITMVLILPKPEKSLAKVEKELTPEVLQEWLDELEEMMLVVHMPRFRIEDGFSLKEQLQDMGLVDLFSPAASALPGIVAEGRDDLYVSDAFHKAFLEVNEEGSEAAASTAVVIAGRSLNPNRVTFKANRPFLVFIREVPLNTIIFMGRVANPCVK", "soluble on expression in E. coli": "soluble"}
    ]}
  ]
}
